We go through 15 molecules from paper PMC10786891, “Massively parallel profiling of RNA-targeting CRISPR-Cas13d”.

First the molecules themselves.
T1: EsCas13d, nuclease-dead (Eubacterium siraeum, UniProt B0MS50, R295A;H300A;R849A;H854A)
T1 sequence: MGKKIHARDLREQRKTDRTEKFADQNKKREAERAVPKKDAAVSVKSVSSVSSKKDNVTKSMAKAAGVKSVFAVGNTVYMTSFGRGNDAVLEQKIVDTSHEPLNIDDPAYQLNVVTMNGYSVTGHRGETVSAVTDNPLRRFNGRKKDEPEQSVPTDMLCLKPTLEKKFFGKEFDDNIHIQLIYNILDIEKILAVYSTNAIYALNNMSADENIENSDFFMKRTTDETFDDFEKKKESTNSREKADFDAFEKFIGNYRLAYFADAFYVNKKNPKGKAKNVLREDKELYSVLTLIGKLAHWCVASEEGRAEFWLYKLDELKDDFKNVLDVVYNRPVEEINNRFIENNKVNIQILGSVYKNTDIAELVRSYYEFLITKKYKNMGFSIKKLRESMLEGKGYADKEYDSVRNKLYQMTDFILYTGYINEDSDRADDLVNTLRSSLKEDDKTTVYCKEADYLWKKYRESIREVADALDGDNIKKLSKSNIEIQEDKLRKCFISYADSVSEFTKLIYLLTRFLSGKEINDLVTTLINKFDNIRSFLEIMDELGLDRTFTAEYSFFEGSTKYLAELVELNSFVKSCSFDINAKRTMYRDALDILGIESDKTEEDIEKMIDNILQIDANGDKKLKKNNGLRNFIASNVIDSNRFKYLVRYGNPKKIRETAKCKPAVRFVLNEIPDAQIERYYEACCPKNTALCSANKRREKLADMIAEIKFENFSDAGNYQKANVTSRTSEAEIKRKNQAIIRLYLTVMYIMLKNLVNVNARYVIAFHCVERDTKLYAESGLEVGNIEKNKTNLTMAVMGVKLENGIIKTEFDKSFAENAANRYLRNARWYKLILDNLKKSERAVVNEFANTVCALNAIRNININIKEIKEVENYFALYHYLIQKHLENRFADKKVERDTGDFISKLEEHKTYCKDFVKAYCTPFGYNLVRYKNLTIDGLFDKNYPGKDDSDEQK

B1: target 1 complement block 2-5 (mixed)
RNA 1: CACCCGUGCAAAAAUGCAGGGGUCUAAAACUGAGCGGAUAACCUCUCUAUGG
RNA 2: GGGAAUGGAUCCACAUCUACGAAUUCGUACCAUAGAGAGGUUAUCCCGAGACCGAGAUCGGAAGAGCACACGU
B2: target 1 A20C,C22G (mixed)
RNA 1: B1 RNA 1
RNA 2: B1 RNA 2 with C30G, A32C, C47G, G48C, A49U, G50C
B3: target 1 insG 3' of 16,insG 3' of 1 (mixed)
RNA 1: B1 RNA 1
RNA 2: GGGAAUGGAUCCACAUCUACGAAUUCGUACCAUAGAGGAGGUUAUCCGCUCAGCCGAGAUCGGAAGAGCACACGU
B4: target 1 G5U,U8C (mixed)
RNA 1: B1 RNA 1
RNA 2: B1 RNA 2 with U44C, C47U, G48C, A49U, G50C
B5: target 1 insC 3' of 3 (mixed)
RNA 1: B1 RNA 1
RNA 2: GGGAAUGGAUCCACAUCUACGAAUUCGUACCAUAGAGAGGUUAUCCGCUCCACCGAGAUCGGAAGAGCACACGU
B6: target 1 insG 3' of 16,insA 3' of 2 (mixed)
RNA 1: B1 RNA 1
RNA 2: B3 RNA 2 with G53A
B7: target 1 insG 3' of 21,insA 3' of 15 (mixed)
RNA 1: B1 RNA 1
RNA 2: GGGAAUGGAUCCACAUCUACGAAUUCGUACCGAUAGAGAAGGUUAUCCGCUCACCGAGAUCGGAAGAGCACACGU
B8: target 1 U11C,A16G (mixed)
RNA 1: B1 RNA 1
RNA 2: B1 RNA 2 with A36G, U41C, C47G, G48C, A49U, G50C
B9: target 1 insG 3' of 16,insU 3' of 6 (mixed)
RNA 1: B1 RNA 1
RNA 2: B3 RNA 2 with G48U, C49G, U50C, C51U, A52C, G53A
B10: target 1 insA 3' of 17,insC 3' of 15 (mixed)
RNA 1: B1 RNA 1
RNA 2: B7 RNA 2 with G32A, A33U, U34A, A35G, G36A, A39C
B11: target 1 insG 3' of 16,insC 3' of 1 (mixed)
RNA 1: B1 RNA 1
RNA 2: B3 RNA 2 with G53C
B12: target 1 insC 3' of 8,insU 3' of 5 (mixed)
RNA 1: B1 RNA 1
RNA 2: GGGAAUGGAUCCACAUCUACGAAUUCGUACCAUAGAGAGGUUAUCCCGUCUCACCGAGAUCGGAAGAGCACACGU
B13: target 1 U3G,U11C (mixed)
RNA 1: B1 RNA 1
RNA 2: B1 RNA 2 with U41C, C47G, G48C, A49G, G50C
B14: target 1 insG 3' of 14,insG 3' of 2 (mixed)
RNA 1: B1 RNA 1
RNA 2: B3 RNA 2 with G38A, A39G, A52G, G53A
B15: target 1 insU 3' of 12,insU 3' of 5 (mixed)
RNA 1: B1 RNA 1
RNA 2: B12 RNA 2 with A43U, U44A, C45U

Substitutions are numbered along the chain they refer to. Numbers in names are those of the source.

The target in this data set is T1, EsCas13d, nuclease-dead. The experiment in a line: crRNA (strand 1, pre-loaded); Mg2+; 40 mM Tris-HCl pH 7.5, 150 mM NaCl, 6 mM MgCl2, 1 mM DTT, 0.1% Tween-20, 0.2 mg/ml BSA; 25 C; 10 min per concentration, then washed. The following applies: tags: His6-TwinStrep-SUMO cleaved; N-terminal SNAP kept (SNAP-Surface 488); label: 3' end held by stalled T7 RNA polymerase.
In turn, B1 gave a Kd of 10.6 ± 0.6 nM.
Turning to B2, binding was characterised by a dissociation constant (Kd) of 39.2 ± 2.3 nM.
The molecule B3 showed a Kd of 13 ± 0.8 nM.
Molecule B4 gave a Kd of 57 ± 12 nM.
In turn, B5 had a Kd of 12.6 ± 0.8 nM. This Kd is about 4.5-fold lower than that of the molecule before.
The molecule B6 came in with a Kd of 14.3 ± 0.9 nM.
On to B7, for which binding was characterised by a dissociation constant (Kd) of 37 ± 6 nM. This Kd lies about 2.6-fold higher than the previous one.
For B8, binding was characterised by a dissociation constant (Kd) of 80 ± 8 nM.
B9 registered a dissociation constant (Kd) of 21 ± 1 nM.
Take B10: the Kd is 12.5 ± 1.4 nM.
In turn, B11 registered a Kd of 11.9 ± 1.1 nM.
The molecule B12 displayed a Kd of 16.1 ± 1.2 nM.
The figure for B13 is 9.9 ± 0.7 nM; for B14 it is 11.8 ± 0.7 nM; for B15 it is 11 ± 0.7 nM.
